Source: patent US7741066B2, “Phosphorylated p68 RNA helicase as a marker for cancer and cancer metastasis” (priority 2005, dated 2010)

Columns and labels:
[1] = system: p68 RNA helicase tyrosine phosphorylation; experiment: Tyrosyl phosphorylation of p68 RNA helicase in cancer cells after treatment (immunoprecipitation with PAbp68, Western Blot with p-tyr-100); format: cell-based, human
Excerpt: After the tissue samples were homogenized, the protein extracts were made from the homogenized sample. The tissue was screened for phosphorylated p68 RNA helicase in two steps. In the first step, the polyclonal antibody PAbp68 was used to isolate p68 RNA helicase from the extracts. In the second step, the antibody p-tyr-100 was used to detect the phosphorylated p68 RNA helicase from the total isolated p68 RNA helicase by the Western Blot. The intensity of the Western Blot signal by the antibody p-tyr-100, in the second step, corresponds to the level of phosphorylated p68 RNA helicase in the sample.
The Western Blots were carried out using antibody p68-rgg (top panel in FIG. 3A-3D) and antibody p-tyr-100 (bottom panel in FIGS. 3A-3D). The p68 RNA helicase was immunoprecipitated by antibody PAbp68.

[2] = system: p68 RNA helicase threonine phosphorylation; experiment: Threonine phosphorylation of p68 RNA helicase in cancer cells after treatment (immunoprecipitation, Western Blot with 14B3); format: cell-based, human; details: for threonine phosphorylation of p68 RNA helicase upon treatment: six different cancer cell lines, Western Blot 14B3; for threonine phosphorylation of p68 RNA helicase upon longer treatment: 30 minutes treatment, data not shown
Protocol: The presence of phosphorylated p68 RNA helicase in cultured cells or tissue samples was examined using immunoprecipitation followed by Western Blots. Immunoblotting also was also performed with a monoclonal antibody against p68 RNA helicase to show the equal amounts or levels of p68 (phosphorylated and unphosphorylated) loaded in the western blotting. Such Western Blots include the use of antibodies to phosphorylated p68 RNA helicase and sodium dodecyl sulphate polyacrylamide gel electrophoresis (SDS-PAGE). Immunoblotting also was performed with a monoclonal antibody against p68 RNA helicase to show the presence of a positive control protein in tumor and normal samples and to indicate that there was no evidence of protein degradation in any of the tissue samples.
A polyacrylamide gel system was employed for separation of proteins. The cell nuclear extracts (80 μl) were diluted to 200 μl with RIPA buffer (160 mM NaCl, 20 mM Tris-HCl, pH 7.5, 1 mM EDTA, 1 mM EGTA, 1 mM DTT, 0.1% Triton X-100, 1% sodium deoxycholate, 0.1% SDS, 1 mM sodium vanadate, and 1 mM PMSF). The antibody PAbp68 then was added to the mixture. The solution subsequently was incubated at 4° C. for 4 hours. Protein A agarose bead slurry (40 μl) then was added and the mixture underwent rotation. The beads were recovered and washed with 5×600 μl RIPA buffer with 0.08% SDS. The precipitated proteins were analyzed by SDS-PAGE followed by Western Blot.
The Western Blot analysis was performed with a commercially available ECL Western Blot and detection kit (Amersham Biosciences). The supernatant from the culture medium of hybridoma cells P68-rgg were used in the blotting experiments at a 5:1 dilution. The polyclonal antibody PAbp68 was used in 1:3000 dilution. The antibodies, PY100 and 14B3 were used with 1:2000 dilution.
The phosphorylation of p68 RNA helicase was investigated using HeLA S3, A549, HEL299, CCD-112CoN, HepG2, and MCF-7 cells. The HeLa S3 and A549 cells were grown in Ham's F12K medium supplemented with 10% fetal bovine serum. The HEL299, CCD-112CoN, HepG2, and MCF-7 cells were maintained in minimum essential medium supplemented with 10% fetal bovine serum. The culture medium contained 2 mM L-glutamine and Earle's BSS adjusted to contain 1.5 g/l of sodium bicarbonate, 0.1 mM of non-essential amino acids, and 1.0 mM sodium pyruvate. The Caco-2 cells were grown in a similar medium condition to that of HEL299 cells but supplemented with 20% fetal bovine serum. The RPMI 1788 and K562 cells were grown in Iscove's modified Dulbecco's medium supplemented with 10% fetal bovine serum. The HEK293 and Hs 578Bst cells were grown in modified Dulbecco's medium containing 10% fetal bovine serum. All cell culture medium contained penicillin (100 U/ml) and streptomycin (100 μg/ml). The cells were grown to 90% confluency prior to performing any experiment.
The phosphorylations of p68 RNA helicase responded differently to different anticancer treatments.
FIGS. 2A and 2B show Western Blots of immunoprecipitated cellular p68 RNA helicase from different cancer cells (indicated). The immuno-blots were carried out using antibody p68-rgg (FIG. 2, top panel in A and B), antibody p-tyr-100 (middle panel in A and B), and antibody 14B3 (FIG. 2, bottom panel in A and B). The + and − represent with or without TNF-α or TRAIL treatments. Tyrosine dephosphorylation and threonine phosphorylation of p68 RNA helicase was present in cancer cells upon the panel (A) TNF-α or panel (B) TRAIL treatments.

[3] = six different cancer cell lines (A549, Caco-2, HepG2, K562, MCF-7, HeLa S3), Western Blot p-tyr-100

Compound | tyrosine phosphorylation of p68 RNA helicase upon treatment [1, 3] | threonine phosphorylation of p68 RNA helicase upon treatment [2] | tyrosine phosphorylation of p68 RNA helicase upon treatment ([1]; MCF-7 breast cancer cells) | tyrosyl phosphorylation of p68 RNA helicase upon treatment ([1]; HeLa cells) | threonine phosphorylation of p68 RNA helicase upon longer treatment [2]
CC(=O)O[C@H]1C(=O)[C@@]2(C)[C@H]([C@H](OC(=O)c3ccccc3)[C@]3(O)C[C@H](OC(=O)[C@H](O)[C@@H](NC(=O)c4ccccc4)c4ccccc4)C(C)=C1C3(C)C)[C@]1(OC(C)=O)CO[C@@H]1C[C@@H]2O [TAXOL®, reference compound] | tyrosyl dephosphorylation was not observed | Threonine phosphorylation was not detected | – | – | –
Cc1ccc(NC(=O)c2ccc(CN3CCN(C)CC3)cc2)cc1Nc1nccc(-c2cccnc2)n1 [STI-571, reference compound] | – | – | decreases in the tyrosine phosphorylation level rather than complete dephosphorylation | – | –
COc1cc([C@@H]2c3cc4c(cc3[C@@H](O[C@@H]3O[C@@H]5CO[C@@H](C)O[C@H]5[C@H](O)[C@H]3O)[C@H]3COC(=O)[C@H]23)OCO4)cc(OC)c1O [etoposide, reference compound] | tyrosyl dephosphorylation was not observed | Threonine phosphorylation was not detected | – | – | –
TNF-α | led to the dephosphorylation of p68 at tyrosine residue(s) | resulted in phosphorylation of p68 at threonine | – | could be dephosphorylated | quickly dephosphorylated again
TRAIL: TNF Related Apoptosis-Inducer Ligand | led to the dephosphorylation of p68 at tyrosine residue(s) | resulted in phosphorylation of p68 at threonine | – | – | quickly dephosphorylated again
